Test results: US20250076311A1 (Chugai, published 2025)

What was measured:
[1] = biological target: T1, human FcγRIIaR extracellular domain with C-terminal His-tag (human, UniProt P12318 34-217); assay: SPR (Biacore), antibody captured, FcgR analyte
T1 construct: also called human FcgRIIaR; FcγRIIa (type R)
T1 chain: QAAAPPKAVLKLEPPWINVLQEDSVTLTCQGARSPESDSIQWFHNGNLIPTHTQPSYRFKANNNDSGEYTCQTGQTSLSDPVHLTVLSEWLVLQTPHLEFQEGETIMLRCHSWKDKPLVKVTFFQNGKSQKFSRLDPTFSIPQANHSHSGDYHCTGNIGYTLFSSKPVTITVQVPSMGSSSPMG

[2] = biological target: T2, cynomolgus monkey FcγRIIIaS extracellular domain with C-terminal His-tag (cynomolgus monkey, UniProt Q8SPW2 21-206 at identity 1.00)); assay: SPR (Biacore), KD of SG1 / KD of variant
T2 construct: also called cyno FcgRIIIaS; cynoFcγRIIIaS
T2 chain: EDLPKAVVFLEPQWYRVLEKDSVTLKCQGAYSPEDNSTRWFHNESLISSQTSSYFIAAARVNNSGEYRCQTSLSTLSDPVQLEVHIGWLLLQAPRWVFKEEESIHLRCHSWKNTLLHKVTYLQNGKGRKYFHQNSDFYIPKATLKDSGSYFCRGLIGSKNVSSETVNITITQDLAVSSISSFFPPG

[3] = biological target: T3, human FcγRIIIaV extracellular domain with C-terminal His-tag (human, UniProt P08637 17-208); assay: SPR (Biacore), antibody captured, FcgR analyte
T3 construct: also called human FcgRIIIaV
T3 sequence (P08637 17-208 F176V): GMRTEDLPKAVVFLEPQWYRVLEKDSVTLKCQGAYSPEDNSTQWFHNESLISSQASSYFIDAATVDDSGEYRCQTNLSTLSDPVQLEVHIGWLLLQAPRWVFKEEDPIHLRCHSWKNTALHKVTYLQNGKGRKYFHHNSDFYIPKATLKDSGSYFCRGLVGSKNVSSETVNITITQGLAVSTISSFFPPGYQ

[4] = biological target: T4, cynomolgus monkey FcγRIIa2 extracellular domain with C-terminal His-tag (cynomolgus monkey); assay: SPR (Biacore), KD of SG1 / KD of variant
T4 construct: also called cyno FcgRIIa2; cynoFcγRIIa2
T4 chain: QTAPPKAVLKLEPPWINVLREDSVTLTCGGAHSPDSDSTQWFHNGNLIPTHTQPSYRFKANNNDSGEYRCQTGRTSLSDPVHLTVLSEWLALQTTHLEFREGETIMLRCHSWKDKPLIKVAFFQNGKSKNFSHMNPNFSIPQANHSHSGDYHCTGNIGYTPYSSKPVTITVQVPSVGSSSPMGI

[5] = biological target: T3, human FcγRIIIaV extracellular domain …; assay: SPR (Biacore), KD of SG1 / KD of variant
[6] = biological target: T5, cynomolgus monkey FcγRIIa3 extracellular domain with C-terminal His-tag (cynomolgus monkey); assay: SPR (Biacore), KD of SG1 / KD of variant
T5 construct: also called cyno FcgRIIa3; cynoFcγRIIa3
T5 chain: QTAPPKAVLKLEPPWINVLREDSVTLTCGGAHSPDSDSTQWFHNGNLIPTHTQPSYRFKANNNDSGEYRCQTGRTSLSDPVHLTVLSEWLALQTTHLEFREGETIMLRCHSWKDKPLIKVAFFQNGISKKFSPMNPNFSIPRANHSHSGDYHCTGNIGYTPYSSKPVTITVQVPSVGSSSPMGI

[7] = biological target: T6, human FcγRIIaH extracellular domain with C-terminal His-tag (human, UniProt P12318 34-217); assay: SPR (Biacore), KD of SG1 / KD of variant
T6 construct: also called human FcgRIIaH; FcγRIIa (type H)
T6 sequence: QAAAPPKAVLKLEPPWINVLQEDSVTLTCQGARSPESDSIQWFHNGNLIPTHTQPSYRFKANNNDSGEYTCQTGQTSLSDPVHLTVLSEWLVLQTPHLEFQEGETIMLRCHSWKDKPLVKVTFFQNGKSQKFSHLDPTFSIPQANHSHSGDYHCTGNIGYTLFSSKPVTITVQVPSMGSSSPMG

[8] = biological target: T6, human FcγRIIaH extracellular domain …; assay: SPR (Biacore), antibody captured, FcgR analyte

B1: M103205H795-MY441/M103202L889-SK1 (antibody, human IgG1, kappa)
heavy: QVTLKESGPVLVKPTETLTLTCTVSGIDLSHDDISWVRQAPGKGLEWVGIISYAGSTYYASWAKGRLTISKDTSKNQVVLTMTNMDPVDTATYYCARGVPAYSHGGDLWGQGTLVTVSSASTKGPSVFPLAPSSKSTSGGTAALGCLVKDYFPEPVTVSWNSGALTSGVHTFPAVLQSSGLYSLSSVVTVPSSSLGTQTYICNVNHKPSNTKVDKKVEPKSCDKTHTCPPCPAAELLTGPSVFLFPPKPKDTLMISRTPEVTCVVVDVSDEDPEVKFNWYVDGVEVHNAKTKPREEQYNSTYRVVSVLTVLHQDWLNGKEYKCKVSNKALPKPIEKTISKAKGQPREPQVYTLPPSREEMTKNQVSLTCLVKGFYPSDIAVEWESNGQPENNYKTTPPVLDSDGSFFLYSKLTVDKSRWQQGNVFSCSVMHEALHNHYTQKSLSLSP
light: DIVMTQSPATLSLSPGERATLSCTSSQSVYHANWLSWFQQKPGQPPKLLIYWASTLAYGVPSRFSGSGSGTDFTLTISSLQPEDAATYYCAGGYGGGRYAFGQGTKVEIKRTVAAPSVFIFPPSDEQLKSGTASVVCLLNNFYPREAKVQWKVDNALQSGNSQESVTEQDSKDSTYSLSSTLTLSKADYEKHKVYACEVTHQGLSSPVTKSFNRGEC
notes: Substitutions in EU numbering on SG1
[1]
  Kd: 600 nM
[2]
  KD fold (SG1 = 1): 0.2 fold

B2: M103205H795-MY460/M103202L889-SK1 (antibody)
chain 1: QVTLKESGPVLVKPTETLTLTCTVSGIDLSHDDISWVRQAPGKGLEWVGIISYAGSTYYASWAKGRLTISKDTSKNQVVLTMTNMDPVDTATYYCARGVPAYSHGGDLWGQGTLVTVSSASTKGPSVFPLAPSSKSTSGGTAALGCLVKDYFPEPVTVSWNSGALTSGVHTFPAVLQSSGLYSLSSVVTVPSSSLGTQTYICNVNHKPSNTKVDKKVEPKSCDKTHTCPPCPEPELLTGPSVFLFPPKPKDTLMISRTPEVTCVVVDVSDEDPEVKFNWYVDGVEVHNAKTKPREEQYNSTYRVVSVLTVLHQDWLNGKEYKCKVSNKALPKPIEKTISKAKGQPREPQVYTLPPSREEMTKNQVSLTCLVKGFYPSDIAVEWESNGQPENNYKTTPPVLDSDGSFFLYSKLTVDKSRWQQGNVFSCSVMHEALHNHYTQKSLSLSP
chain 2: DIVMTQSPATLSLSPGERATLSCTSSQSVYHANWLSWFQQKPGQPPKLLIYWASTLAYGVPSRFSGSGSGTDFTLTISSLQPEDAATYYCAGGYGGGRYAFGQGTKVEIKRTVAAPSVFIFPPSDEQLKSGTASVVCLLNNFYPREAKVQWKVDNALQSGNSQESVTEQDSKDSTYSLSSTLTLSKADYEKHKVYACEVTHQGLSSPVTKSFNRGEC
[2]
  KD fold (SG1 = 1): 0.2 fold

B3: M103205H795-MY466/M103202L889-SK1 (antibody)
heavy: QVTLKESGPVLVKPTETLTLTCTVSGIDLSHDDISWVRQAPGKGLEWVGIISYAGSTYYASWAKGRLTISKDTSKNQVVLTMTNMDPVDTATYYCARGVPAYSHGGDLWGQGTLVTVSSASTKGPSVFPLAPSSKSTSGGTAALGCLVKDYFPEPVTVSWNSGALTSGVHTFPAVLQSSGLYSLSSVVTVPSSSLGTQTYICNVNHKPSNTKVDKKVEPKSCDKTHTCPPCPLPELLTGPSVFLFPPKPKDTLMISRTPEVTCVVVDVSDEDPEVKFNWYVDGVEVHNAKTKPREEQYNSTYRVVSVLTVLHQDWLNGKEYKCKVSNKALPKPIEKTISKAKGQPREPQVYTLPPSREEMTKNQVSLTCLVKGFYPSDIAVEWESNGQPENNYKTTPPVLDSDGSFFLYSKLTVDKSRWQQGNVFSCSVMHEALHNHYTQKSLSLSP
light: DIVMTQSPATLSLSPGERATLSCTSSQSVYHANWLSWFQQKPGQPPKLLIYWASTLAYGVPSRFSGSGSGTDFTLTISSLQPEDAATYYCAGGYGGGRYAFGQGTKVEIKRTVAAPSVFIFPPSDEQLKSGTASVVCLLNNFYPREAKVQWKVDNALQSGNSQESVTEQDSKDSTYSLSSTLTLSKADYEKHKVYACEVTHQGLSSPVTKSFNRGEC
notes: as for B1
[1]
  Kd: 260 nM
[3]
  Kd: 4600 nM
[4]
  KD fold (SG1 = 1): 2.8 fold
[5]
  KD fold (SG1 = 1): 0.2 fold

B4: M103205H795-MY443/M103202L889-SK1 (antibody, human IgG1, kappa)
heavy: QVTLKESGPVLVKPTETLTLTCTVSGIDLSHDDISWVRQAPGKGLEWVGIISYAGSTYYASWAKGRLTISKDTSKNQVVLTMTNMDPVDTATYYCARGVPAYSHGGDLWGQGTLVTVSSASTKGPSVFPLAPSSKSTSGGTAALGCLVKDYFPEPVTVSWNSGALTSGVHTFPAVLQSSGLYSLSSVVTVPSSSLGTQTYICNVNHKPSNTKVDKKVEPKSCDKTHTCPPCPAEELLTGPSVFLFPPKPKDTLMISRTPEVTCVVVDVSDEDPEVKFNWYVDGVEVHNAKTKPREEQYNSTYRVVSVLTVLHQDWLNGKEYKCKVSNKALPKPIEKTISKAKGQPREPQVYTLPPSREEMTKNQVSLTCLVKGFYPSDIAVEWESNGQPENNYKTTPPVLDSDGSFFLYSKLTVDKSRWQQGNVFSCSVMHEALHNHYTQKSLSLSP
light: DIVMTQSPATLSLSPGERATLSCTSSQSVYHANWLSWFQQKPGQPPKLLIYWASTLAYGVPSRFSGSGSGTDFTLTISSLQPEDAATYYCAGGYGGGRYAFGQGTKVEIKRTVAAPSVFIFPPSDEQLKSGTASVVCLLNNFYPREAKVQWKVDNALQSGNSQESVTEQDSKDSTYSLSSTLTLSKADYEKHKVYACEVTHQGLSSPVTKSFNRGEC
notes: as for B1
[6]
  KD fold (SG1 = 1): 1.5 fold
[2]
  KD fold (SG1 = 1): 0.2 fold
[7]
  KD fold (SG1 = 1): 1.5 fold

B5: M103205H795-MY449/M103202L889-SK1 (antibody, human IgG1, kappa)
heavy: QVTLKESGPVLVKPTETLTLTCTVSGIDLSHDDISWVRQAPGKGLEWVGIISYAGSTYYASWAKGRLTISKDTSKNQVVLTMTNMDPVDTATYYCARGVPAYSHGGDLWGQGTLVTVSSASTKGPSVFPLAPSSKSTSGGTAALGCLVKDYFPEPVTVSWNSGALTSGVHTFPAVLQSSGLYSLSSVVTVPSSSLGTQTYICNVNHKPSNTKVDKKVEPKSCDKTHTCPPCPALELLTGPSVFLFPPKPKDTLMISRTPEVTCVVVDVSDEDPEVKFNWYVDGVEVHNAKTKPREEQYNSTYRVVSVLTVLHQDWLNGKEYKCKVSNKALPKPIEKTISKAKGQPREPQVYTLPPSREEMTKNQVSLTCLVKGFYPSDIAVEWESNGQPENNYKTTPPVLDSDGSFFLYSKLTVDKSRWQQGNVFSCSVMHEALHNHYTQKSLSLSP
light: DIVMTQSPATLSLSPGERATLSCTSSQSVYHANWLSWFQQKPGQPPKLLIYWASTLAYGVPSRFSGSGSGTDFTLTISSLQPEDAATYYCAGGYGGGRYAFGQGTKVEIKRTVAAPSVFIFPPSDEQLKSGTASVVCLLNNFYPREAKVQWKVDNALQSGNSQESVTEQDSKDSTYSLSSTLTLSKADYEKHKVYACEVTHQGLSSPVTKSFNRGEC
notes: as for B1
[8]
  Kd: 98 nM

B6: M103205H795-MY459/M103202L889-SK1 (antibody)
heavy: QVTLKESGPVLVKPTETLTLTCTVSGIDLSHDDISWVRQAPGKGLEWVGIISYAGSTYYASWAKGRLTISKDTSKNQVVLTMTNMDPVDTATYYCARGVPAYSHGGDLWGQGTLVTVSSASTKGPSVFPLAPSSKSTSGGTAALGCLVKDYFPEPVTVSWNSGALTSGVHTFPAVLQSSGLYSLSSVVTVPSSSLGTQTYICNVNHKPSNTKVDKKVEPKSCDKTHTCPPCPDPELLTGPSVFLFPPKPKDTLMISRTPEVTCVVVDVSDEDPEVKFNWYVDGVEVHNAKTKPREEQYNSTYRVVSVLTVLHQDWLNGKEYKCKVSNKALPKPIEKTISKAKGQPREPQVYTLPPSREEMTKNQVSLTCLVKGFYPSDIAVEWESNGQPENNYKTTPPVLDSDGSFFLYSKLTVDKSRWQQGNVFSCSVMHEALHNHYTQKSLSLSP
light: DIVMTQSPATLSLSPGERATLSCTSSQSVYHANWLSWFQQKPGQPPKLLIYWASTLAYGVPSRFSGSGSGTDFTLTISSLQPEDAATYYCAGGYGGGRYAFGQGTKVEIKRTVAAPSVFIFPPSDEQLKSGTASVVCLLNNFYPREAKVQWKVDNALQSGNSQESVTEQDSKDSTYSLSSTLTLSKADYEKHKVYACEVTHQGLSSPVTKSFNRGEC
notes: as for B1
[2]
  KD fold (SG1 = 1): 0.2 fold
[7]
  KD fold (SG1 = 1): 1.6 fold
